Literature values as cited in article PMC9179313.
“And” between values parts separate entries of the source, which are not always exact repeats. Equal values may be shown once.

Molecular target: ICAM1 (Homo sapiens) (UniProt P05362)
Sequence (P05362 28-480): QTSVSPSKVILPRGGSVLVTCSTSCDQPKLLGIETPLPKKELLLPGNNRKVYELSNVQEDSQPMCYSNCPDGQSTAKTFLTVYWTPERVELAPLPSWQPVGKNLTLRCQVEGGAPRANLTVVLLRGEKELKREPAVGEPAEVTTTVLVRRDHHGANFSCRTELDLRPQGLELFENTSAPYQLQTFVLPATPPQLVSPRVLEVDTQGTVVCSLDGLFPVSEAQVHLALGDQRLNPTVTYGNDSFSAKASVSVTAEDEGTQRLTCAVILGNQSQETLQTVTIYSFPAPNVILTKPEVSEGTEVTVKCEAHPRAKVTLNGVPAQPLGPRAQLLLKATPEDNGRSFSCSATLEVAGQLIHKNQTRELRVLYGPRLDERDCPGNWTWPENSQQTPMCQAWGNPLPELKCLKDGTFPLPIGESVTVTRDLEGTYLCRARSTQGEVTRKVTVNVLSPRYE

Chain of LFA1 (integrin alpha-L beta-2) (P20701 26-1090): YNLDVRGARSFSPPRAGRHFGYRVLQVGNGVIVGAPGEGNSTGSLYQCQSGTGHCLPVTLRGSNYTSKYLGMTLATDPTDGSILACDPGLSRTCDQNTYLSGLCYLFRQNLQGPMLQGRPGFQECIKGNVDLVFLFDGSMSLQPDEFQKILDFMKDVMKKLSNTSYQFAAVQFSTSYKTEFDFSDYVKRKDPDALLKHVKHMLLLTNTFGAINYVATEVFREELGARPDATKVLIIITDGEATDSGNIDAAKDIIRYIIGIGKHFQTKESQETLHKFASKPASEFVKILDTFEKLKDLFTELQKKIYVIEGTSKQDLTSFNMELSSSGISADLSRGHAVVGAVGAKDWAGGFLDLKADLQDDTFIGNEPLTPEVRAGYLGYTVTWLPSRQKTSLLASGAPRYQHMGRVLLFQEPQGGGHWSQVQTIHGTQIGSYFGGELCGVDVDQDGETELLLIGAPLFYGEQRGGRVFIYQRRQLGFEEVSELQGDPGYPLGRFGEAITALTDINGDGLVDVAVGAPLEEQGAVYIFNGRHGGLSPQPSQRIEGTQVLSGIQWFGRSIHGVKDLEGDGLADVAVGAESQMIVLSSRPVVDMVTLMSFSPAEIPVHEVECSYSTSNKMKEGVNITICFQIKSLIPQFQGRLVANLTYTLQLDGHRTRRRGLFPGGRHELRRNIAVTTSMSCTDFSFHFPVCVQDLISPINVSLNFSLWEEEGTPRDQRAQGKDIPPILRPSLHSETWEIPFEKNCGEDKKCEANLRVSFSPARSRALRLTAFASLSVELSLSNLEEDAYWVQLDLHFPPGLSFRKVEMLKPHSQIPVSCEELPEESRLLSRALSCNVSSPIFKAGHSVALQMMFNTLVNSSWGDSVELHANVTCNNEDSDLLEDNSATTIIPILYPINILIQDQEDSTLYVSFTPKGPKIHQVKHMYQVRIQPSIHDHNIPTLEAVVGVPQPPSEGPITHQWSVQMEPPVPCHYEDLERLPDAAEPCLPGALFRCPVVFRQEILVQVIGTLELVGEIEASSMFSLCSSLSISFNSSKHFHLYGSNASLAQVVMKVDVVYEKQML
Chain of LFA1 (integrin alpha-L beta-2) (P05107 23-700, further chain): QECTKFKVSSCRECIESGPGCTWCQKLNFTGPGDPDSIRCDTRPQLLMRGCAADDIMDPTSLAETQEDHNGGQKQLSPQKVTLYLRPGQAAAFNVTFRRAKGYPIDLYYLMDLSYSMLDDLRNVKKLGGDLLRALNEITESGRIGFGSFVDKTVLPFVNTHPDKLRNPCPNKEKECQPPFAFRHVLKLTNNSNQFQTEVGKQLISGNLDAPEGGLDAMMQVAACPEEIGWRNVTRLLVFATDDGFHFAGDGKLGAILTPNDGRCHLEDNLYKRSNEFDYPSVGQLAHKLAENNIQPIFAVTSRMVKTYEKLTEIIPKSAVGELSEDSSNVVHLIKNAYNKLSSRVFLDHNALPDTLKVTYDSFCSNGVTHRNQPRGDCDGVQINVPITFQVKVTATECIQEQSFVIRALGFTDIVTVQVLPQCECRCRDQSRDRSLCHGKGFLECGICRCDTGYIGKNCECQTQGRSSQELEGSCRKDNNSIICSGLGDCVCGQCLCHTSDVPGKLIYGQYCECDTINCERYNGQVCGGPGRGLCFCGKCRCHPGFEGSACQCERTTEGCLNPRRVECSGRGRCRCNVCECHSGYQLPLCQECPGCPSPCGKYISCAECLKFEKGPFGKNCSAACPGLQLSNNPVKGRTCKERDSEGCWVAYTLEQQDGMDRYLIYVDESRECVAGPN

## LFA1 (integrin alpha-L beta-2) (from UniProt P20701)
  Kd: 26 µM and 36 µM
